Data published in PMC9533685, “NICD3 regulates the expression of MUC5AC and MUC2 by recruiting SMARCA4 and is involved in the differentiation of mucinous colorectal adenocarcinoma” (Molecular Oncology, 2022).

T1: His-tagged human NOTCH3 intracellular domain (aa 1665-2321) (human, UniProt Q9UM47 1665-2321)
T1 construct: human NOTCH3 intracellular domain, aa 1665-2321; also called His-NICD3; source: E. coli, purified (GeneCreate Biological Engineering)
T1 sequence (looked up): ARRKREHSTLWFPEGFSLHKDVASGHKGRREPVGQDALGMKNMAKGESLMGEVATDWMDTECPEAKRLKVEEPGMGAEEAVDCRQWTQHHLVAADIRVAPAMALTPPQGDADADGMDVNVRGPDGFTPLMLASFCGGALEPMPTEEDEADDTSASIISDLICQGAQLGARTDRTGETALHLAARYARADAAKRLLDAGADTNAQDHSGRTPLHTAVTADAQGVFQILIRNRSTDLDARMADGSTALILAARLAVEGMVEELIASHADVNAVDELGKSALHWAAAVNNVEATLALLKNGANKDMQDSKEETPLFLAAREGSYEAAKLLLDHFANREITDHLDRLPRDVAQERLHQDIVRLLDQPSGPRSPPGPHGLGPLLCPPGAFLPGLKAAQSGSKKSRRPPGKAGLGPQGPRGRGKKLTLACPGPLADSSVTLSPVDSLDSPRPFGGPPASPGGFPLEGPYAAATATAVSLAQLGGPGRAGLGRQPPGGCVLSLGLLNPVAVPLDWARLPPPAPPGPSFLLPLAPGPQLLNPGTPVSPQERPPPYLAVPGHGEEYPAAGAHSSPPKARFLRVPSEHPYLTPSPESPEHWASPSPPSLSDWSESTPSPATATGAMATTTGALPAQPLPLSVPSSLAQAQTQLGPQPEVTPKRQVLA

B1: GST-tagged SMARCA4 BROMO domain (aa 1455-1566) (domain or fragment, human, UniProt P51532 1455-1566, looked up)
chain: PPNLTKKMKKIVDAVIKYKDSSSGRQLSEVFIQLPSRKELPEYYELIRKPVDFKKIKERIRNHKYRSLNDLEKDVMLLCQNAQTFNLEGSLIYEDSIVLQSVFTSVRQKIEK
notes: also called SMART BROMO domain; source: E. coli, purified (GeneCreate Biological Engineering)
B2: GST-tagged SMARCA4 BRK domain (aa 612-656) (domain or fragment, human, UniProt P51532 612-656, looked up)
chain: MSDLPVKVIHVESGKILTGTDAPKAGQLEAWLEMNPGYEVAPRSD
notes: also called SMART BRK domain; source: E. coli, purified (GeneCreate Biological Engineering)

Target: T1, His-tagged human NOTCH3 intracellular …
Assay: pull-down; GST pull-down: purified GST-tagged SMARCA4 segments mixed with His-NICD3 on ice for 3 h, beads, five washes, elution with 15 mM reduced glutathione; blots with anti-GST and anti-His; GST as negative control
Conditions: both partners purified

Row | binding result | Binder
1 | binds | B1
2 | binds | B2
